We go through one molecule from patent US20240010696A1.

The experiment has as its target mouse IL-12 receptor on cells (mouse) (UniProt Q60837). Kind of experiment: cell-based or functional assay.

mouse IL-12 receptor on cells (mouse), sequence (Q60837 20-738, chain 1 of 2): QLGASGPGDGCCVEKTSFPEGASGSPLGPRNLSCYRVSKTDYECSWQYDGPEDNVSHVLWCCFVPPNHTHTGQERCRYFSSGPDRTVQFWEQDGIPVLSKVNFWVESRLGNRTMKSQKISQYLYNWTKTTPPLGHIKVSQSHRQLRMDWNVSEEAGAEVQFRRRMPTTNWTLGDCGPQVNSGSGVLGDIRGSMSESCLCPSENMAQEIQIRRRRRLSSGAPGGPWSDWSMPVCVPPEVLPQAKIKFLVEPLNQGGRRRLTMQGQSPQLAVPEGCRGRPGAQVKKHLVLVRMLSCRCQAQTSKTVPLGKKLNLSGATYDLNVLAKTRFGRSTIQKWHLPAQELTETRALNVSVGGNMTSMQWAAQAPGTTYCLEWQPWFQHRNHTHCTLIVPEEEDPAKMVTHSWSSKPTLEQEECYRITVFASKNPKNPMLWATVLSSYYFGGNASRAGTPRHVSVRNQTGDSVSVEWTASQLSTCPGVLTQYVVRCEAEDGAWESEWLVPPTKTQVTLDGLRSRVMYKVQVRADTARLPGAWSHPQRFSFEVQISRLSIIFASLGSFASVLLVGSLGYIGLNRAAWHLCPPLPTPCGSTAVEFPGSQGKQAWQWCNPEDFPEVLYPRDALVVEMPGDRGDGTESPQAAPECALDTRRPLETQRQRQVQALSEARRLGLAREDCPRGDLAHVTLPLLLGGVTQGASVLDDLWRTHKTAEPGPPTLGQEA
mouse IL-12 receptor on cells (mouse), sequence (P97378 24-874, chain 2 of 2, further chain): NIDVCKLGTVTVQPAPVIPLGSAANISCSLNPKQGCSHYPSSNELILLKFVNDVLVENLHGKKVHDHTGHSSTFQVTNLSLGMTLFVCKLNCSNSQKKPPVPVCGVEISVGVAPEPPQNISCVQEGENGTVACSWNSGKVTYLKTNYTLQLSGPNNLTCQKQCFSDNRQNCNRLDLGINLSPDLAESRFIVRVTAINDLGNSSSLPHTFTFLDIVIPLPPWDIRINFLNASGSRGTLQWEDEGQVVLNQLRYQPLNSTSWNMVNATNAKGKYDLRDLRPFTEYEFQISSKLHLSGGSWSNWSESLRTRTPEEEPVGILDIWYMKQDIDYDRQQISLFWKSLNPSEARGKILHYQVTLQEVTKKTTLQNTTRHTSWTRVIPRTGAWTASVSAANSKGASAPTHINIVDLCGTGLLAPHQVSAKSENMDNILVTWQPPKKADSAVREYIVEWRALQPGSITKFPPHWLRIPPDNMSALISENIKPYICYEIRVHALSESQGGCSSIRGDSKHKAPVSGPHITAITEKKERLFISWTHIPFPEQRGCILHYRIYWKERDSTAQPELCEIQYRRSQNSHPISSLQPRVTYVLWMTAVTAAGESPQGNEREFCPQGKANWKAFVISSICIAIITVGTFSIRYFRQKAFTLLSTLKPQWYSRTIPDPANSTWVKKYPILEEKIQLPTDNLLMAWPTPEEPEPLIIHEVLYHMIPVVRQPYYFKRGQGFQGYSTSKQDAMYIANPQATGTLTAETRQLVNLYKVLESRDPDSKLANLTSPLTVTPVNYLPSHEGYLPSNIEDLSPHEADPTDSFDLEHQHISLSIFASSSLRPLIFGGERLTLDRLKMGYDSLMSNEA

B1: mIL12 mutein-isotype (mouse IL-12 mutein fused to a human isotype (IgG1) control antibody) (protein, part only; not given: isotype control antibody, part only)
chain: MWELEKDVYVVEVDWTPDAPGETVNLTCDTPEEDDITWTSDQRHGVIGSGKTLTITVKEFLDAGQYTCHKGGETLSHSHLLLHKKENGIWSTEILKNFKNKTFLKCEAPNYSGRFTCSWLVQRNMDLKFNIKSSSSSPDSRAVTCGMASLSAEKVTLDQRDYEKYSVSCQEDVTCPTAEETLPIELALEARQQNKYENYSTSFFIRDIIKPDPPKNLQMKPLKNSQVEVSWEYPDSWSTPHSYFSLKFFVGGGEKMKETEEGCNQKGAFLVEKTSTEVQCKGGNVCVQAQDRYYNSSCSKWACVPCRVRSGGGGGGSRVIPVSGPARCLSQSRNLLKTTDDMVKTAREKLEFYPCTAEDIDHEDITRDQTSTLKTCLPLELHKNESCLATRETSSTTRGSCLPPQKTSLMMTLCLGSIYEDLKMYQTEFQAINAALQNHNHQQIILDKGMLVAIDELMQSLNHNGETLRQKPPVGEADPYRVKMKLCILLHAFSTRVVTINRVMGYLSSA
With B1, the Reduction in pSTAT4 production of 2) mutein IL-12 fused to isotype mAb as compared to 1) wild-type IL12 fused to isotype mAb (activated mouse CD4 T cells, flow cytometry) amounted to 23200 fold.
